Measurements published in publication PMC4933246, “Alanine Expansions Associated with Congenital Central Hypoventilation Syndrome Impair PHOX2B Homeodomain-mediated Dimerization and Nuclear Import*” (The Journal of Biological Chemistry, 2016).

Target: the molecule itself
Assay: two-hybrid; mammalian two-hybrid (CheckMate, Promega) in HeLa cells; GAL4 BD fusion (pBIND) and VP16 AD fusion (pACT), 80 fmol each, with 160 fmol pG5LUC; Dual-Luciferase assay

B1: PHOX2A fused to GAL4 BD or VP16 AD (natural protein)
chain: not shown
notes: PHOX2A, human; Each copy carries either GAL4 BD or VP16 AD; also called GAL4 BD-PHOX2A; VP16 AD-PHOX2A; source: mammalian two-hybrid fusion, transfected HeLa cells
luciferase activity relative to that of the PHOX2B fusion constructs: > 2 fold
